Assay results from PMC10786891, “Massively parallel profiling of RNA-targeting CRISPR-Cas13d”.

T1: EsCas13d, nuclease-dead (Eubacterium siraeum, UniProt B0MS50, R295A;H300A;R849A;H854A)
T1 sequence: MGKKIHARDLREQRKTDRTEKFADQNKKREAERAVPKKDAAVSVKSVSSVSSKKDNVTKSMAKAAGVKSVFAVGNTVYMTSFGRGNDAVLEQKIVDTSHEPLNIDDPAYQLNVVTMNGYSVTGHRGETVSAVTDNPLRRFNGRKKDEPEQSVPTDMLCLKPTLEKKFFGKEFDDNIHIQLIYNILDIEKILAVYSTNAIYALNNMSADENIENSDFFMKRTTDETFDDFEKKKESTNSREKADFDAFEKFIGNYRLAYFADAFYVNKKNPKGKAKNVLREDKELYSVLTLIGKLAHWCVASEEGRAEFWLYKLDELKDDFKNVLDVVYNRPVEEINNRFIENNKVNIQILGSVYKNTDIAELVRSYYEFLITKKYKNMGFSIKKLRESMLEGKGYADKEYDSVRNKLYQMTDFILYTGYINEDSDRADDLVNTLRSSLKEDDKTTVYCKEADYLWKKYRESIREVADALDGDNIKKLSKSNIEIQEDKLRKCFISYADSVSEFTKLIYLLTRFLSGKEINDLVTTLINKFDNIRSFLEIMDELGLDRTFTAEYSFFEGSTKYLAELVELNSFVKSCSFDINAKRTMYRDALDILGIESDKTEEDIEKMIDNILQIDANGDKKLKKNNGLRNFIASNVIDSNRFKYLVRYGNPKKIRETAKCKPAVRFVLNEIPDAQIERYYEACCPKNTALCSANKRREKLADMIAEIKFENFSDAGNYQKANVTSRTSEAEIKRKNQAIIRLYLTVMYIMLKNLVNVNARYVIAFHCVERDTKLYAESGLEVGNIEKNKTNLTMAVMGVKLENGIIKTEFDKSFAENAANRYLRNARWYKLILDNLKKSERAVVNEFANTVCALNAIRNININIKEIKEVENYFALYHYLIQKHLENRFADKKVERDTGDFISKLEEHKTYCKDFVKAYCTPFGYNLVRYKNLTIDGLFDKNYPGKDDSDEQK

B1: target 1 MT 5'PFS CCC 3'PFS AUU (mixed)
RNA 1: CACCCGUGCAAAAAUGCAGGGGUCUAAAACUGAGCGGAUAACCUCUCUAUGG
RNA 2: GGGAAUGGAUCCACAUCUACGAAUUCCCCCCAUAGAGAGGUUAUCCGCUCAAUUAGAUCGGAAGAGCACACGU
B2: target 1 MT 5'PFS GAG 3'PFS UCA (mixed)
RNA 1: CACCCGUGCAAAAAUGCAGGGGUCUAAAACUGAGCGGAUAACCUCUCUAUGG
RNA 2: GGGAAUGGAUCCACAUCUACGAAUUCGAGCCAUAGAGAGGUUAUCCGCUCAUCAAGAUCGGAAGAGCACACGU
B3: target 1 MT 5'PFS GAG 3'PFS UCC (mixed)
RNA 1: CACCCGUGCAAAAAUGCAGGGGUCUAAAACUGAGCGGAUAACCUCUCUAUGG
RNA 2: GGGAAUGGAUCCACAUCUACGAAUUCGAGCCAUAGAGAGGUUAUCCGCUCAUCCAGAUCGGAAGAGCACACGU
B4: target 1 MT 5'PFS CCU 3'PFS CAA (mixed)
RNA 1: CACCCGUGCAAAAAUGCAGGGGUCUAAAACUGAGCGGAUAACCUCUCUAUGG
RNA 2: GGGAAUGGAUCCACAUCUACGAAUUCCCUCCAUAGAGAGGUUAUCCGCUCACAAAGAUCGGAAGAGCACACGU
B5: target 1 MT 5'PFS ACG 3'PFS AUC (mixed)
RNA 1: CACCCGUGCAAAAAUGCAGGGGUCUAAAACUGAGCGGAUAACCUCUCUAUGG
RNA 2: GGGAAUGGAUCCACAUCUACGAAUUCACGCCAUAGAGAGGUUAUCCGCUCAAUCAGAUCGGAAGAGCACACGU
B6: target 1 MT 5'PFS CAA 3'PFS ACC (mixed)
RNA 1: CACCCGUGCAAAAAUGCAGGGGUCUAAAACUGAGCGGAUAACCUCUCUAUGG
RNA 2: GGGAAUGGAUCCACAUCUACGAAUUCCAACCAUAGAGAGGUUAUCCGCUCAACCAGAUCGGAAGAGCACACGU
B7: target 1 insC 3' of 12,insC 3' of 12 (mixed)
RNA 1: CACCCGUGCAAAAAUGCAGGGGUCUAAAACUGAGCGGAUAACCUCUCUAUGG
RNA 2: GGGAAUGGAUCCACAUCUACGAAUUCGUACCAUAGAGAGGCCUUAUCCGCUCACCGAGAUCGGAAGAGCACACGU
B8: target 1 MT 5'PFS GAG 3'PFS UCU (mixed)
RNA 1: CACCCGUGCAAAAAUGCAGGGGUCUAAAACUGAGCGGAUAACCUCUCUAUGG
RNA 2: GGGAAUGGAUCCACAUCUACGAAUUCGAGCCAUAGAGAGGUUAUCCGCUCAUCUAGAUCGGAAGAGCACACGU
B9: target 1 MT 5'PFS AUG 3'PFS AUU (mixed)
RNA 1: CACCCGUGCAAAAAUGCAGGGGUCUAAAACUGAGCGGAUAACCUCUCUAUGG
RNA 2: GGGAAUGGAUCCACAUCUACGAAUUCAUGCCAUAGAGAGGUUAUCCGCUCAAUUAGAUCGGAAGAGCACACGU
B10: target 1 MT 5'PFS CCU 3'PFS CAU (mixed)
RNA 1: CACCCGUGCAAAAAUGCAGGGGUCUAAAACUGAGCGGAUAACCUCUCUAUGG
RNA 2: GGGAAUGGAUCCACAUCUACGAAUUCCCUCCAUAGAGAGGUUAUCCGCUCACAUAGAUCGGAAGAGCACACGU
B11: target 1 MT 5'PFS ACG 3'PFS AUG (mixed)
RNA 1: CACCCGUGCAAAAAUGCAGGGGUCUAAAACUGAGCGGAUAACCUCUCUAUGG
RNA 2: GGGAAUGGAUCCACAUCUACGAAUUCACGCCAUAGAGAGGUUAUCCGCUCAAUGAGAUCGGAAGAGCACACGU
B12: target 1 U8C,U19C (mixed)
RNA 1: CACCCGUGCAAAAAUGCAGGGGUCUAAAACUGAGCGGAUAACCUCUCUAUGG
RNA 2: GGGAAUGGAUCCACAUCUACGAAUUCGUACCACAGAGAGGUUACCCGCUCACCGAGAUCGGAAGAGCACACGU
B13: target 1 MT 5'PFS ACG 3'PFS AUA (mixed)
RNA 1: CACCCGUGCAAAAAUGCAGGGGUCUAAAACUGAGCGGAUAACCUCUCUAUGG
RNA 2: GGGAAUGGAUCCACAUCUACGAAUUCACGCCAUAGAGAGGUUAUCCGCUCAAUAAGAUCGGAAGAGCACACGU
B14: target 1 MT 5'PFS AUG 3'PFS AUG (mixed)
RNA 1: CACCCGUGCAAAAAUGCAGGGGUCUAAAACUGAGCGGAUAACCUCUCUAUGG
RNA 2: GGGAAUGGAUCCACAUCUACGAAUUCAUGCCAUAGAGAGGUUAUCCGCUCAAUGAGAUCGGAAGAGCACACGU
B15: target 1 insC 3' of 12,insG 3' of 4 (mixed)
RNA 1: CACCCGUGCAAAAAUGCAGGGGUCUAAAACUGAGCGGAUAACCUCUCUAUGG
RNA 2: GGGAAUGGAUCCACAUCUACGAAUUCGUACCAUAGAGAGGCUUAUCCGCGUCACCGAGAUCGGAAGAGCACACGU
B16: target 1 MT 5'PFS CCU 3'PFS CAG (mixed)
RNA 1: CACCCGUGCAAAAAUGCAGGGGUCUAAAACUGAGCGGAUAACCUCUCUAUGG
RNA 2: GGGAAUGGAUCCACAUCUACGAAUUCCCUCCAUAGAGAGGUUAUCCGCUCACAGAGAUCGGAAGAGCACACGU
B17: target 1 MT 5'PFS GAG 3'PFS UCG (mixed)
RNA 1: CACCCGUGCAAAAAUGCAGGGGUCUAAAACUGAGCGGAUAACCUCUCUAUGG
RNA 2: GGGAAUGGAUCCACAUCUACGAAUUCGAGCCAUAGAGAGGUUAUCCGCUCAUCGAGAUCGGAAGAGCACACGU
B18: target 1 MT 5'PFS CCU 3'PFS CAC (mixed)
RNA 1: CACCCGUGCAAAAAUGCAGGGGUCUAAAACUGAGCGGAUAACCUCUCUAUGG
RNA 2: GGGAAUGGAUCCACAUCUACGAAUUCCCUCCAUAGAGAGGUUAUCCGCUCACACAGAUCGGAAGAGCACACGU
B19: target 1 MT 5'PFS CUG 3'PFS AGG (mixed)
RNA 1: CACCCGUGCAAAAAUGCAGGGGUCUAAAACUGAGCGGAUAACCUCUCUAUGG
RNA 2: GGGAAUGGAUCCACAUCUACGAAUUCCUGCCAUAGAGAGGUUAUCCGCUCAAGGAGAUCGGAAGAGCACACGU
B20: target 2 MT 5'PFS CGG 3'PFS CAC (mixed)
RNA 1: CACCCGUGCAAAAUUGCAGGGGUCUAAAACCUUCUCCAAAUUGUUUCAUCCU
RNA 2: GGGAAUGGAUCCACAUCUACGAAUUCCGGAGGAUGAAACAAUUUGGAGAAGCACAGAUCGGAAGAGCACACGU
B21: target 2 MT 5'PFS UGA 3'PFS AUA (mixed)
RNA 1: CACCCGUGCAAAAUUGCAGGGGUCUAAAACCUUCUCCAAAUUGUUUCAUCCU
RNA 2: GGGAAUGGAUCCACAUCUACGAAUUCUGAAGGAUGAAACAAUUUGGAGAAGAUAAGAUCGGAAGAGCACACGU
B22: target 2 MT 5'PFS UGA 3'PFS AUU (mixed)
RNA 1: CACCCGUGCAAAAUUGCAGGGGUCUAAAACCUUCUCCAAAUUGUUUCAUCCU
RNA 2: GGGAAUGGAUCCACAUCUACGAAUUCUGAAGGAUGAAACAAUUUGGAGAAGAUUAGAUCGGAAGAGCACACGU
B23: target 2 MT 5'PFS UGA 3'PFS AUC (mixed)
RNA 1: CACCCGUGCAAAAUUGCAGGGGUCUAAAACCUUCUCCAAAUUGUUUCAUCCU
RNA 2: GGGAAUGGAUCCACAUCUACGAAUUCUGAAGGAUGAAACAAUUUGGAGAAGAUCAGAUCGGAAGAGCACACGU
B24: target 2 MT 5'PFS AGG 3'PFS AUC (mixed)
RNA 1: CACCCGUGCAAAAUUGCAGGGGUCUAAAACCUUCUCCAAAUUGUUUCAUCCU
RNA 2: GGGAAUGGAUCCACAUCUACGAAUUCAGGAGGAUGAAACAAUUUGGAGAAGAUCAGAUCGGAAGAGCACACGU
B25: target 2 MT 5'PFS CGG 3'PFS CAG (mixed)
RNA 1: CACCCGUGCAAAAUUGCAGGGGUCUAAAACCUUCUCCAAAUUGUUUCAUCCU
RNA 2: GGGAAUGGAUCCACAUCUACGAAUUCCGGAGGAUGAAACAAUUUGGAGAAGCAGAGAUCGGAAGAGCACACGU
B26: target 2 MT 5'PFS CGG 3'PFS CAA (mixed)
RNA 1: CACCCGUGCAAAAUUGCAGGGGUCUAAAACCUUCUCCAAAUUGUUUCAUCCU
RNA 2: GGGAAUGGAUCCACAUCUACGAAUUCCGGAGGAUGAAACAAUUUGGAGAAGCAAAGAUCGGAAGAGCACACGU
B27: target 2 MT 5'PFS CGG 3'PFS CAU (mixed)
RNA 1: CACCCGUGCAAAAUUGCAGGGGUCUAAAACCUUCUCCAAAUUGUUUCAUCCU
RNA 2: GGGAAUGGAUCCACAUCUACGAAUUCCGGAGGAUGAAACAAUUUGGAGAAGCAUAGAUCGGAAGAGCACACGU
B28: target 2 MT 5'PFS UAG 3'PFS AAU (mixed)
RNA 1: CACCCGUGCAAAAUUGCAGGGGUCUAAAACCUUCUCCAAAUUGUUUCAUCCU
RNA 2: GGGAAUGGAUCCACAUCUACGAAUUCUAGAGGAUGAAACAAUUUGGAGAAGAAUAGAUCGGAAGAGCACACGU

biological target: T1, EsCas13d, nuclease-dead; assay: crRNA (strand 1, pre-loaded); Mg2+; 40 mM Tris-HCl pH 7.5, 150 mM NaCl, 6 mM MgCl2, 1 mM DTT, 0.1% Tween-20, 0.2 mg/ml BSA; 25 C; 10 min per concentration, then washed; conditions: tags: His6-TwinStrep-SUMO cleaved; N-terminal SNAP kept (SNAP-Surface 488); label: 3' end held by stalled T7 RNA polymerase

Binder	Kd
B1	~8 nM
B2	~47.5 nM
B3	55.5 ± 26.5 nM
B4	55 ± 19 nM
B5	~24.5 nM
B6	14.8 ± 5.05 nM
B7	18.3 ± 1.3 nM
B8	29 ± 9 nM
B9	11.4 ± 2.5 nM
B10	13.5 ± 5.5 nM
B11	45 ± 18.5 nM
B12	41.1 ± 2.3 nM
B13	16.5 ± 6.5 nM
B14	49 ± 18 nM
B15	5.7 ± 0.5 nM
B16	~26 nM
B17	42 ± 16 nM
B18	15.2 ± 5.15 nM
B19	66.5 ± 33 nM
B20	6.8 ± 1.3 nM
B21	7.1 ± 1.4 nM
B22	7.5 ± 1.3 nM
B23	8.7 ± 1.1 nM
B24	5.5 ± 0.6 nM
B25	4.3 ± 0.6 nM
B26	3.4 ± 0.5 nM
B27	4.4 ± 0.5 nM
B28	3.8 ± 0.5 nM
